Drawing on PMC7406587, “Improving the production of AHL lactonase AiiO-AIO6 from Ochrobactrum sp. M231 in intracellular protease-deficient Bacillus subtilis” (AMB Express, 2020), this text covers Km and kcat for 1 protein.

Substrate in the data set: CCCCCC(=O)CC(=O)N[C@H]1CCOC1=O
Kind of data set: purified protein. As to conditions: PBS pH 7.0, 30 °C, 30 min, substrate range printed as 0.249 to 0.870 nM in methods, not consistent with Km in mmol/L, hydrolysis assay used 0.248 mM. Format: biochemical, Ochrobactrum sp. M231.

B1: AiiO-AIO6 (Ochrobactrum sp. M231) (protein)
chain: MKSHEIETSHGRIAIRESRGNGTPLLMIHGNSSAGAIFAPQLEGEIGRNWRVIAPDLPGHGQSGNALDPDRSYSMEGYADVMTEVLAKLGISDAVVFGWSLGGHIGIEMISRFPGMRGLMITGTPPVAREEVGQGFRSGPDMALAGQEAFSDRDVESYARSTCGEPFEEQLLEIVARTDGRARRIMFEKFAAGTGGNQRDIVAEARLPIAVVNGRDEPFVELDFVSKVRFGNLWEGRTHVIDGAGHAPFRETPAIFDDYLQRFMRDCTA
notes: purified recombinant; expressed from pWB-AIO6BS in Bacillus subtilis 1A751 or protease-deletion derivatives (non-classical secretion, no signal peptide); His tag implied by anti-His Western blot; catalytic triad Ser100, Glu214, His246
One may read the Km as the concentration of substrate that gives half-maximal velocity. For B1, the Km came to 415.1 µM and the kcat came out at 9.34 S^-1.
